The target in experiment [1] is gp120-B prebound to sCD4 (HIV-1 (B subtype, isolate YU2) | human) (UniProt P35961). Kind of experiment: ITC. For orientation: In ITC the heat of successive injections is recorded.
Experiment [2] concerns the target gp120-A prebound to sCD4 (HIV-1 (A subtype, isolate 92UG031) | human). The experiment in a line: ITC.

We go through one substance from paper PMC2840190.

UniProt P35961, sequence (P35961 whole entry, looked up): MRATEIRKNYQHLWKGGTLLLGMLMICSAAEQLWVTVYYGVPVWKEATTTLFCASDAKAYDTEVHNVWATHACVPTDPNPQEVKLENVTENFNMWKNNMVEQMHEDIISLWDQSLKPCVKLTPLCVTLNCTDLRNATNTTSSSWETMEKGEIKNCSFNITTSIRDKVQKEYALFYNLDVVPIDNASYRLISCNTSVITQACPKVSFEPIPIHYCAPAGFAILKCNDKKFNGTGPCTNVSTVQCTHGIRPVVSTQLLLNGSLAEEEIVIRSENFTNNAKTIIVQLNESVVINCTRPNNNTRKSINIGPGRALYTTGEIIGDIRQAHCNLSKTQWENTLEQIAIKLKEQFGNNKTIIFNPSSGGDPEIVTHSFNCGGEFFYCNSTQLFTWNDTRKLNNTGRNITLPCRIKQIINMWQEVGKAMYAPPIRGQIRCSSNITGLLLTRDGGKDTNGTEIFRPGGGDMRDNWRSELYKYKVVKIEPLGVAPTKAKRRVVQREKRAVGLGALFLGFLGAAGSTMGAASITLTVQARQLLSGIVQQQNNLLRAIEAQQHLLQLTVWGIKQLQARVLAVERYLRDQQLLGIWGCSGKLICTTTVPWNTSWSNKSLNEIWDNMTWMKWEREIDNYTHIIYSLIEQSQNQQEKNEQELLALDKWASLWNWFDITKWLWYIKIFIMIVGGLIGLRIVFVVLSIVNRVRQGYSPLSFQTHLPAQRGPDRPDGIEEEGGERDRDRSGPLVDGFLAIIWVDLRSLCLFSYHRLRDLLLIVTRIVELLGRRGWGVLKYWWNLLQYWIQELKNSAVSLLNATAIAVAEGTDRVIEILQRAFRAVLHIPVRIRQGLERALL

In general, Kd refers to the concentration at which binding is half-saturated. A high value points to weaker binding. Take Monoclonal antibody 17b: in experiment [1], the dH is -11.1 kcal/mol. In experiment [2], this substance yielded a Kd of 12 nM.
